Measured values reported in US20090227507A1, “Angiotensin (1-7) Dosage Forms and Uses Thereof” (UNIVERSITY OF SOUTHERN CALIFORNIA, priority 2008, published 2009).

Assay: Hematology profile (CBC with differential, platelet count) in healthy men;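 for Platelet Count, Median Change from Baseline: Thousands of platelets per mm³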;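 for Platelet Count, Median: Thousands of platelets per mm³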
Assay type: in vivo, human
Conditions: for number of various white blood cell types in peripheral blood above baseline levels: human administration
Protocol: Pharmacological Effect: The following evaluations (under efficacy and safety in the protocol) were performed: • Effects on the number of mature blood cells: • 1. CBC (with differential), platelet count, reticulocyte count. • Effects on early hematopoietic progenitor cells and mature lymphocyte subsets in the periphery: • 1. Flow cytometry to evaluate frequency of peripheral blood progenitor cells (eg, CD34^+) and lymphocyte subsets (eg, CD3, CD4, CD8) in peripheral blood. • 2. Collection of blood for later possible culture for progenitor cells (eg, colony forming units-granulocyte/macrophage [CFU-GM]) to evaluate potential effects on CD34^+ hematopoietic progenitor cells in peripheral blood. • 3.
The effect of USB003 on the number of mature blood cells was assessed by the complete blood count with differential, platelet and reticulocyte counts. The effects on early hematopoietic progenitor cells and mature lymphocyte subsets in the periphery were assessed by flow cytometry. In addition, blood was collected and processed to enable culture of progenitors at a later time.
Red blood cell (RBC) count, RBC indices, white blood cell count (WBC) with differential, reticulocyte count, platelet count, hemoglobin (Hb), hematocrit (Hct), plasma hemoglobin, peripheral flow cytometry, including CD34^+, flow cytometry for enumeration of CD3, CD4, and CD8 lymphocytes, and culture for progenitor cells in peripheral blood including colony-forming units-granulocyte/macrophage (CFU-GM).

[1] = 300 μg/kg, N = 8, baseline to Day 8
[2] = 300 μg/kg, N = 8, baseline to Day 20
[3] = 300 μg/kg, Study Termination Visit Day 19
[4] = 300 μg/kg, repeat test 10 days later
[5] = Subject 042, 300 μg/kg, Day 29 U (unscheduled)

Asp-Arg-Val-Tyr-Ile-His-Pro [USB003]
Eosinophils shift L-N, number of subjects [1]: — (“—” = 0)
Eosinophils shift N-H, number of subjects [1]: — (“—” = 0)
Eosinophils shift N-L, number of subjects [1]: — (“—” = 0)
Hematocrit shift H-N, number of subjects [1]: — (“—” = 0)
Hematocrit shift L-N, number of subjects [1]: — (“—” = 0)
Hematocrit shift N-H, number of subjects [1]: — (“—” = 0)
Hematocrit shift N-L, number of subjects [1]: 2
Hemoglobin shift H-N, number of subjects [1]: — (“—” = 0)
Hemoglobin shift L-N, number of subjects [1]: — (“—” = 0)
Hemoglobin shift N-H, number of subjects [1]: — (“—” = 0)
Hemoglobin shift N-L, number of subjects [1]: 2
Lymphocytes shift H-N, number of subjects [1]: — (“—” = 0)
Lymphocytes shift L-N, number of subjects [1]: — (“—” = 0)
Lymphocytes shift N-H, number of subjects [1]: — (“—” = 0)
Lymphocytes shift N-L, number of subjects [1]: — (“—” = 0)
Plasma Hemoglobin shift H-N, number of subjects [1]: — (“—” = 0)
Plasma Hemoglobin shift L-N, number of subjects [1]: — (“—” = 0)
Plasma Hemoglobin shift N-H, number of subjects [1]: — (“—” = 0)
Plasma Hemoglobin shift N-L, number of subjects [1]: — (“—” = 0)
Platelet Count shift H-N, number of subjects [1]: — (“—” = 0)
Platelet Count shift L-N, number of subjects [1]: 1
Platelet Count shift N-H, number of subjects [1]: — (“—” = 0)
Platelet Count shift N-L, number of subjects [1]: — (“—” = 0)
RBC shift H-N, number of subjects [1]: — (“—” = 0)
RBC shift L-N, number of subjects [1]: — (“—” = 0)
RBC shift N-H, number of subjects [1]: — (“—” = 0)
RBC shift N-L, number of subjects [1]: 1
Segmented Neutrophils shift H-N, number of subjects [1]: — (“—” = 0)
Segmented Neutrophils shift L-N, number of subjects [1]: — (“—” = 0)
Segmented Neutrophils shift N-H, number of subjects [1]: — (“—” = 0)
Segmented Neutrophils shift N-L, number of subjects [1]: — (“—” = 0)
Absolute Eosinophils shift H-N, number of subjects [2]: — (“—” = 0)
Absolute Eosinophils shift L-N, number of subjects [2]: — (“—” = 0)
Absolute Eosinophils shift N-H, number of subjects [2]: — (“—” = 0)
Absolute Eosinophils shift N-L, number of subjects [2]: — (“—” = 0)
Absolute Neutrophils shift H-N, number of subjects [2]: — (“—” = 0)
Absolute Neutrophils shift L-N, number of subjects [2]: — (“—” = 0)
Absolute Neutrophils shift N-H, number of subjects [2]: 1
Absolute Neutrophils shift N-L, number of subjects [2]: — (“—” = 0)
Absolute Reticulocytes shift H-N, number of subjects [2]: — (“—” = 0)
Absolute Reticulocytes shift L-N, number of subjects [2]: — (“—” = 0)
Absolute Reticulocytes shift N-H, number of subjects [2]: — (“—” = 0)
Absolute Reticulocytes shift N-L, number of subjects [2]: — (“—” = 0)
Eosinophils shift H-N, number of subjects [2]: 1
Eosinophils shift L-N, number of subjects [2]: — (“—” = 0)
Eosinophils shift N-H, number of subjects [2]: 2
Eosinophils shift N-L, number of subjects [2]: — (“—” = 0)
Hematocrit shift H-N, number of subjects [2]: — (“—” = 0)
Hematocrit shift L-N, number of subjects [2]: — (“—” = 0)
Hematocrit shift N-H, number of subjects [2]: — (“—” = 0)
Hematocrit shift N-L, number of subjects [2]: 4
Hemoglobin shift H-N, number of subjects [2]: — (“—” = 0)
Hemoglobin shift L-N, number of subjects [2]: — (“—” = 0)
Hemoglobin shift N-H, number of subjects [2]: — (“—” = 0)
Hemoglobin shift N-L, number of subjects [2]: 3
Lymphocytes shift H-N, number of subjects [2]: 1
Lymphocytes shift L-N, number of subjects [2]: — (“—” = 0)
Lymphocytes shift N-H, number of subjects [2]: — (“—” = 0)
Lymphocytes shift N-L, number of subjects [2]: — (“—” = 0)
Monocytes shift H-N, number of subjects [2]: — (“—” = 0)
Monocytes shift L-N, number of subjects [2]: — (“—” = 0)
Monocytes shift N-H, number of subjects [2]: — (“—” = 0)
Monocytes shift N-L, number of subjects [2]: — (“—” = 0)
Plasma Hemoglobin shift H-N, number of subjects [2]: — (“—” = 0)
Plasma Hemoglobin shift L-N, number of subjects [2]: — (“—” = 0)
Plasma Hemoglobin shift N-H, number of subjects [2]: 1
Plasma Hemoglobin shift N-L, number of subjects [2]: — (“—” = 0)
Platelet Count shift H-N, number of subjects [2]: — (“—” = 0)
Platelet Count shift L-N, number of subjects [2]: 1
Platelet Count shift N-H, number of subjects [2]: — (“—” = 0)
Platelet Count shift N-L, number of subjects [2]: — (“—” = 0)
RBC shift H-N, number of subjects [2]: — (“—” = 0)
RBC shift L-N, number of subjects [2]: — (“—” = 0)
RBC shift N-H, number of subjects [2]: — (“—” = 0)
RBC shift N-L, number of subjects [2]: 2
RDW shift H-N, number of subjects [2]: — (“—” = 0)
RDW shift L-N, number of subjects [2]: — (“—” = 0)
RDW shift N-H, number of subjects [2]: — (“—” = 0)
RDW shift N-L, number of subjects [2]: — (“—” = 0)
Segmented Neutrophils shift H-N, number of subjects [2]: — (“—” = 0)
Segmented Neutrophils shift L-N, number of subjects [2]: — (“—” = 0)
Segmented Neutrophils shift N-H, number of subjects [2]: 2
Segmented Neutrophils shift N-L, number of subjects [2]: — (“—” = 0)
WBC shift H-N, number of subjects [2]: — (“—” = 0)
WBC shift L-N, number of subjects [2]: — (“—” = 0)
WBC shift N-H, number of subjects [2]: 1
WBC shift N-L, number of subjects [2]: — (“—” = 0)
Absolute Neutrophils, Median (300 μg/kg, Baseline): 2.85 thousands/mm^3
Hematocrit, Median (300 μg/kg, Baseline): 45.25%
Hemoglobin, Median (300 μg/kg, Baseline): 15.60 g/dL
Lymphocytes, Median (300 μg/kg, Baseline): 33.60%
Platelet Count, Median (300 μg/kg, Baseline): 216.0 thousands/mm^3
WBC, Median (300 μg/kg, Baseline): 5.15 thousands/mm^3
Absolute Neutrophils, Median (300 μg/kg, Day 8): 2.95 thousands/mm^3
Absolute Neutrophils, Median Change from Baseline (300 μg/kg, Day 8): −0.10 thousands/mm^3
Hematocrit, Median (300 μg/kg, Day 8): 42.30%
Hematocrit, Median Change from Baseline (300 μg/kg, Day 8): −2.10%
Hemoglobin, Median (300 μg/kg, Day 8): 14.40 g/dL
Hemoglobin, Median Change from Baseline (300 μg/kg, Day 8): -1.15 g/dL
Lymphocytes, Median (300 μg/kg, Day 8): 34.50%
Lymphocytes, Median Change from Baseline (300 μg/kg, Day 8): 1.00%
Platelet Count, Median (300 μg/kg, Day 8): 243.0 thousands/mm^3
Platelet Count, Median Change from Baseline (300 μg/kg, Day 8): 22.5 thousands/mm^3
WBC, Median (300 μg/kg, Day 8): 5.65 thousands/mm^3
WBC, Median Change from Baseline (300 μg/kg, Day 8): −0.30 thousands/mm^3
Absolute Neutrophils, Median (300 μg/kg, Day 20): 3.80 thousands/mm^3
Absolute Neutrophils, Median Change from Baseline (300 μg/kg, Day 20): 0.75 thousands/mm^3
Hematocrit, Median (300 μg/kg, Day 20): 40.45%
Hematocrit, Median Change from Baseline (300 μg/kg, Day 20): −3.45%
Hemoglobin, Median (300 μg/kg, Day 20): 14.0 g/dL
Hemoglobin, Median Change from Baseline (300 μg/kg, Day 20): -1.30 g/dL
Lymphocytes, Median (300 μg/kg, Day 20): 29.75%
Lymphocytes, Median Change from Baseline (300 μg/kg, Day 20): −3.90%
Platelet Count, Median (300 μg/kg, Day 20): 243.5 thousands/mm^3
Platelet Count, Median Change from Baseline (300 μg/kg, Day 20): 14 thousands/mm^3
WBC, Median (300 μg/kg, Day 20): 6.55 thousands/mm^3
WBC, Median Change from Baseline (300 μg/kg, Day 20): 1.30 thousands/mm^3
WBC value, Subject 042 [3]: 13,400 cells/mm^3
segmented neutrophils, Subject 042 [3]: 84.9%
WBC count, Subject 042 [4]: 8,900 cells/mm^3
segmented neutrophils, Subject 042 [4]: 73.5%
total WBC and neutrophil concentrations (200 and 300 μg/kg SC): increases
WBC Significance (Subject 027, 200 μg/kg, Day 11): CS AE
WBC Value (Subject 027, 200 μg/kg, Day 11): 12.7 10^3/mm³
WBC High/Low Normal/Abnormal (Subject 027, 200 μg/kg, Day 14): N
WBC Value (Subject 027, 200 μg/kg, Day 14): 7.3 10^3/mm³
Segmented Neutrophils Significance (Subject 042, 300 μg/kg, Day 19): CS AE
Segmented Neutrophils Value (Subject 042, 300 μg/kg, Day 19): 84.9%
WBC Significance (Subject 042, 300 μg/kg, Day 19): CS AE
WBC Value (Subject 042, 300 μg/kg, Day 19): 13.4 10^3/mm³
Segmented Neutrophils Significance [5]: NCS
Segmented Neutrophils Value [5]: 73.5%
WBC High/Low Normal/Abnormal [5]: N
WBC Value [5]: 8.9 10^3/mm³
peripheral blood concentrations of WBC, neutrophils, CD3, CD34+, CD4 and CD8 (during the administration of USB003): elevations
time for all hematological parameters to return to baseline (following discontinuation of USB003 administration): ≤ 12 days
number of various white blood cell types in peripheral blood above baseline levels (doses of 300 μg/kg or more): increasing the number of various white blood cell types
number of various white blood cell types in peripheral blood above baseline levels (lower doses (200 μg/kg)): did not provide such an increase over baseline
